# Reference: patent EP2651411B1
# Experiments:
# [1] = molecular target: somatostatin receptors on AR42J cells (rat); test: apparent IC50; competition with ^111In(DTPA-octreotide) on AR42J cells, 3 h at RT
# [2] = molecular target: carcinoembryonic antigen (CEA) (UniProt P06731); test: SEC-HPLC; the conjugate without CEA eluted at 10.312 min and 10.331 min in serum
# [3] = molecular target: gastrin-releasing peptide receptor on PC-3 cells (UniProt P30550); test: competition with ^125I-Bombesin for binding to 3x10^6 PC-3 cells, inhibitor 56 to 0.44 nM
# Sequence of UniProt P30550 (P30550 whole entry): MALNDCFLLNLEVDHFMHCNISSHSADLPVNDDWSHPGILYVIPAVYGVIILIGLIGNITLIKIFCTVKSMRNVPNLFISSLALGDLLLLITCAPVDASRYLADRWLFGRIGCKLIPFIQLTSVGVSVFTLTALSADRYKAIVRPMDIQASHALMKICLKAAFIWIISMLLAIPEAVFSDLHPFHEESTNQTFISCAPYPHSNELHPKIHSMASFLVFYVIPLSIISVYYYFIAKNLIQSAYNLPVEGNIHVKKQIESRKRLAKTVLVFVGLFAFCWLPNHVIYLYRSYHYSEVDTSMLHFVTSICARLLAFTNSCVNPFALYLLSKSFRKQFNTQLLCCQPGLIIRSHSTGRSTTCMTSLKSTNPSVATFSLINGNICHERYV
# [4] = molecular target: gastrin-releasing peptide receptor on PC-3 cells (UniProt P30550); test: competition with ^125I-BBN for binding to PC-3 cells, inhibitor 250 to 2 nM
# Sequence of UniProt P06731 (P06731 35-685 limits assumed): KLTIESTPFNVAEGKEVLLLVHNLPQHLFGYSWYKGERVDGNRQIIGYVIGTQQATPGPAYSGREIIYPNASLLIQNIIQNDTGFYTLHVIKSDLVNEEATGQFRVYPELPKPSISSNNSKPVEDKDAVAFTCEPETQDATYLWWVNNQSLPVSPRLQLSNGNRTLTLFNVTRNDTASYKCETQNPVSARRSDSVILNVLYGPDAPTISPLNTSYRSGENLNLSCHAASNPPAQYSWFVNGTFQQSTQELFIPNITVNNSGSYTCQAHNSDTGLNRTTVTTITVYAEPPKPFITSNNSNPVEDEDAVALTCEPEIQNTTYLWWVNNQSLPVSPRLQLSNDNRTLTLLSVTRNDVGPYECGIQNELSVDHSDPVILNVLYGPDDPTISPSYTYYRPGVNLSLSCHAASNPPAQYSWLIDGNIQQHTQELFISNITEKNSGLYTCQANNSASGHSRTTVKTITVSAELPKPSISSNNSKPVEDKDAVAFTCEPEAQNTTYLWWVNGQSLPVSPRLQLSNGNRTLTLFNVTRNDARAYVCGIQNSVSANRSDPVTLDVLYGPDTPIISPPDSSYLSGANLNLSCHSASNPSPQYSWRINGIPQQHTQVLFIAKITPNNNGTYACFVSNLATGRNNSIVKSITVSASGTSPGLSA
Substance,IC50 [1],IC50 [4],also measured
^69Ga(IMP466) (^69Ga complex of NOTA-D-Phe-Cys-Phe-D-Trp-Lys-Thr-Cys-Throl) (peptide),13 nM,–,–
Al^18F(NODA-MPAES)-hMN-14 Fab',–,–,SEC-HPLC retention time of the major product after adding CEA [2]: 7.21 min
Al^19F(IMP466) (Al^19F complex of NOTA-D-Phe-Cys-Phe-D-Trp-Lys-Thr-Cys-Throl) (peptide),3.6 nM,–,–
IMP468 (NOTA-NH-(CH2)7CO-Gln-Trp-Val-Trp-Ala-Val-Gly-His-Leu-Met-NH2) (peptide),–,35.9 nM,IC50 [3]: 21.5 nM

# More lines, main results first:
IC50 [1],IC50 [4],Substance,also measured
6.3 nM,–,^115In(DTPA-octreotide) (peptide),–
–,24.4 nM,commercially available BBN peptide (bombesin positive control),–
